The values that follow come from patent US20210246224A1 (Regeneron, published 2021).

Assay [1] has as its target T1, human HER2 expressed on cells (cancer cell lines and normal primary cultures) (human, UniProt P04626 23-1255).
T1 construct: Endogenous HER2 of the cell lines; the same cells also express APLP2; also called human epidermal growth factor receptor 2
In words: imaging, Alexa647-labelled antibody 10 ug/mL at 4 C on NLE cells; signal per nuclei, normalised to the highest cell line. As for the experimental part: (§1) After, cells were washed twice with cold DMEM+10% FBS. […] After, the solution was replaced with DPBS/CM. Binding of the bispecific antibodies to each of the cell types was measured using an Image Xpress^Micro automatic microscope (Molecular Devices). […] (See also FIG. 2.)
(§2) The signal of antibody binding (mean intensity fluorescence of Alexa647) divided by the nuclei signals was determined for each condition using MetaXpress software (Molecular Devices). Values were normalized to the cell line displaying the highest antibody binding signal.

For assay [2], the target named is T2, human APLP2 extracellular domain expressed with a C-terminal myc-myc-hexahistidine tag (human, UniProt Q06481 32-692).
T2 construct: also called hAPLP2-MMH; APLP2.mmh
The assay can be described thus: SPR (Biacore 4000), antibody captured on anti-human Fc, hAPLP2-MMH injected, 37 C. On the procedure: (§3) Equilibrium dissociation constants (KD values) for HER2 and APLP2 binding to purified anti-HER2xAPLP2 bispecific and parental antibodies were determined using a real-time surface plasmon resonance biosensor using a Biacore 4000 instrument. The Biacore sensor surface was first derivatized by amine coupling with a monoclonal mouse anti-human Fc antibody (GE, Cat #BR-1008-39) to capture anti-HER2xAPLP2 bispecific monoclonal antibodies. […] Kinetic association rate constant (ka) and dissociation rate constant (kd) were determined by fitting the real-time sensorgrams to a 1:1 binding model using Scrubber 2.0c curve fitting software. Binding dissociation equilibrium constants (KD) and dissociative half-lives (t1/2) were calculated from the kinetic rate constants as: […]
(In SPR one partner is held on a chip, and binding of the other changes the refractive index at the surface.)

Assay [3] has as its target T1, human HER2 expressed on cells (cancer …). The assay can be described thus: imaging, Alexa647-labelled antibody 10 ug/mL at 4 C on JIMT-1 cells; signal per nuclei, normalised to the highest cell line. As for the experimental part:
as §1, §2

The target is the same in assay [4]. In words: imaging, Alexa647-labelled antibody 10 ug/mL at 4 C on SKBR3 cells; signal per nuclei, normalised to the highest cell line. As for the experimental part: (§4) To test the ability of bispecific anti-HER2xAPLP2 molecules described herein to bind to cells lines expressing various levels of HER2, a high content imaging assay was performed. […] Cells were plated on collagen-coated, black wall, 96-well, optical plates (Greiner, Cat #655936) at 2.5×10⁵ cells per well in their appropriate culture media, which is described for each cell line/culture in Table 6, and incubated overnight at 37° C. in 5% CO₂.
as §1, §2

Assay [5] shares this target. The assay can be described thus: imaging, Alexa647-labelled antibody 10 ug/mL at 4 C on BT483 cells; signal per nuclei, normalised to the highest cell line. On the procedure:
as §4, §1, §2

Assay [6] shares this target. In words: imaging, Alexa647-labelled antibody 10 ug/mL at 4 C on MDA-MB-361 cells; signal per nuclei, normalised to the highest cell line. On the procedure: as §1, §2
The target is the same in assay [7]. The assay can be described thus: imaging, Alexa647-labelled antibody 10 ug/mL at 4 C on MDA-MB-468 cells; signal per nuclei, normalised to the highest cell line. As for the experimental part:
as §1, §2

Assay [8] deals with T3, human HER2 extracellular domain expressed with a C-terminal myc-myc-hexahistidine tag (human, UniProt P04626 23-652).
T3 construct: also called hHER2-MMH; HER2.mmh
In words: SPR (Biacore 4000), antibody captured on anti-human Fc, hHER2-MMH injected, 37 C. As for the experimental part: as §3

Assay [9] has as its target T2, human APLP2 extracellular domain …. In words: SPR, antibody captured, hAPLP2-MMH injected, 25 C (second row for this antibody).
For assay [10], the target named is T1, human HER2 expressed on cells (cancer …). In words: imaging, Alexa647-labelled antibody 10 ug/mL at 4 C on MCF7 cells; signal per nuclei, normalised to the highest cell line. On the procedure:
as §1, §2

The target is the same in assay [11]. The assay can be described thus: imaging, Alexa647-labelled antibody 10 ug/mL at 4 C on NBE cells; signal per nuclei, normalised to the highest cell line. On the procedure:
as §1, §2

Assay [12] shares this target. The assay can be described thus: imaging, Alexa647-labelled antibody 10 ug/mL at 4 C on MDA-MB-453 cells; signal per nuclei, normalised to the highest cell line. As for the experimental part: as §1, §2
The target is the same in assay [13]. The assay can be described thus: imaging, Alexa647-labelled antibody 10 ug/mL at 4 C on T47D cells; signal per nuclei, normalised to the highest cell line. As for the experimental part:
as §1, §2

For assay [14], the target named is T2, human APLP2 extracellular domain …. The assay can be described thus: SPR, antibody captured, hAPLP2-MMH injected, 25 C.

T2 sequence (Q06481 other isoform, or with tags, fused parts or gaps): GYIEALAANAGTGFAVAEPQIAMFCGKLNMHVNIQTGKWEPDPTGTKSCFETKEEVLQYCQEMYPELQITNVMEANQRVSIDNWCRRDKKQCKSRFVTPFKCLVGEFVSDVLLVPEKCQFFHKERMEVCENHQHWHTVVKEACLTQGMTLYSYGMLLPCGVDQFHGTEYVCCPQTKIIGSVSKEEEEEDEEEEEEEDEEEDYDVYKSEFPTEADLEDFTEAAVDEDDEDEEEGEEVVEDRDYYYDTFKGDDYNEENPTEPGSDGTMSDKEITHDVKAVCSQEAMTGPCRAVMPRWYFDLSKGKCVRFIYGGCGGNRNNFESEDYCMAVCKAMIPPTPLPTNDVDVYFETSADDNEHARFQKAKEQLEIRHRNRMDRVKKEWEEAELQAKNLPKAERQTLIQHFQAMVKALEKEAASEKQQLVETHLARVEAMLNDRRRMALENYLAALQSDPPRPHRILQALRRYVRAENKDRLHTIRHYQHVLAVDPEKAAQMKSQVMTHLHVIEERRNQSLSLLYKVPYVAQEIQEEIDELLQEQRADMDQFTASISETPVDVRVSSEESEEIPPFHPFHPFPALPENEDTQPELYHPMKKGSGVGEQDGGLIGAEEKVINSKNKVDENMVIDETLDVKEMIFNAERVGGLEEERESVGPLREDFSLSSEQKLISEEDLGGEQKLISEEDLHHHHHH

B1: H4H25018D (bispecific antibody, IgG4, V domains shown)
VH 1: QVQLQESGPGLVKPSQTLSLTCTVSGGSISSGHYFWSWIRQHPGKGLEWIGYIFYSGSTHYNPSLKSRLSISVDTSKNQFSLRLTSVTAADTAVYYCAREEGDYNFWDVDYVPGHFDYWGQGTLVTVSS
VH 2: EVQLVESGGGLVQPGRSLRLSCVASGFTFADYAMHWVRQAPGKGLEWVSGISWNSGNIDYADSVKGRFTISRDNAKNSLYLQMNSLRTEDTALYYCAKVRIVVAGYYYYYYGMDVWGQGTTVTVSS
VL: not shown
notes: Wild-type kappa CL and a modified (chimeric) IgG4 CH domain as set forth in US20140243504A1; also called bispecific anti-HER2xAPLP2 antibody
One may read the Kd as the free concentration of one partner at which half of the binding sites on the other are occupied at equilibrium, for simple one-to-one binding. Usually t½ stands for the time in which the quantity being followed falls by half. B1: the “Antibody bound (% of highest)” value in [1] came to 3%; in [3] it was 17%; in assay [4], 100%; in assay [5] it was 16%; in assay [6], 30%; in assay [7] it was 1%. In addition, the “Antibody bound (% of highest)” value worked out at 6% in [10], 9% in [11], 25% in assay [12] and 5% in assay [13]. The “100 nM hAPLP2-MMH Bound (RU)” value in assay [2] came to 49 RU. In addition, the Kd came out at 145 nM in assay [2], 4.21 nM in [8], 16.6 nM in [9] and 15.6 nM in [14]. Also, the t½ in [2] was found to be 1.2 min; in assay [9] it was 7.7 min; in [14], 6.8 min. In addition, the “90 nM hAPLP2-MMH Bound (RU)” value in [14] came out at 30.2 RU.

B2: H4H25019D (bispecific antibody, IgG4, V domains shown)
VH 1: QVQLVQSGPEVKKPGASVKVSCKASGYTFPNFGISWVRQAPGQGLEWMGWIAPYNVATNYAPKLQGRVTMTTDTSTSTAYMELRSLRSDDTAVYYCARWGAGYMGYYYYGMDVWGQGTTVTVSS
VH 2: EVQLVESGGGLVQPGRSLRLSCVASGFTFADYAMHWVRQAPGKGLEWVSGISWNSGNIDYADSVKGRFTISRDNAKNSLYLQMNSLRTEDTALYYCAKVRIVVAGYYYYYYGMDVWGQGTTVTVSS
VL: not shown
notes: as for B1
As for B2, the “Antibody bound (% of highest)” value in [1] came out at 2%; in assay [3], 15%; in assay [4], 100%; in assay [5], 22%; in assay [6], 32%; in [7], 1%. Besides, the “Antibody bound (% of highest)” value amounted to 7% in assay [10], 6% in assay [11], 30% in assay [12] and 9% in assay [13]. Moreover, the “100 nM hAPLP2-MMH Bound (RU)” value in assay [2] was 48 RU. For the same molecule, the values for the dissociation constant Kd in assay [2], in assay [9] and in assay [14] were 183 nM, 17.2 nM and 14.6 nM, respectively. Moreover, the t½ in [2] was 1.1 min; in [8] it was 11 min; in assay [9], 6.7 min; in assay [14], 8.7 min. For the same molecule, the “90 nM hAPLP2-MMH Bound (RU)” value in assay [14] stood at 30.6 RU.

B3: H4H25020D (bispecific antibody, IgG4, V domains shown)
VH 1: QVQLQESGPGLVKPSQTLSLTCTVSGGSISSGHYFWSWIRQHPGKGLEWIGYIFYSGSTHYNPSLKSRLSISVDTSKNQFSLRLTSVTAADTAVYYCAREEGDYNFWDVDYVPGHFDYWGQGTLVTVSS
VH 2: QVQLVQSGVEVKKPGASVKVSCKASGYTFTDYGISWVRQAPGQGLEWMGWISAHNGNTNYAQKLQGRVTMTTDTSTNTAYMELRSLRSDDTAVYYCARRNWKYFDYWGQGTLVTVSS
VL: not shown
notes: as for B1
Turning to B3, the “Antibody bound (% of highest)” value in [1] came out at 6%; in assay [3] it was 18%; in assay [4], 100%; in assay [5], 15%; in [6], 27%; in assay [7], 1%. Also, the “Antibody bound (% of highest)” value was found to be 5% in assay [10], 8% in assay [11], 24% in assay [12] and 5% in assay [13]. Also, the “100 nM hAPLP2-MMH Bound (RU)” value in assay [2] was 30 RU. In addition, the results for the Kd in assay [2] and in assay [8] were 844 nM and 4.2 nM, respectively. In addition, the t½ in assay [2] is 0.03 min.

B4: H4H25021D (bispecific antibody, IgG4, V domains shown)
VH 1: QVQLVQSGPEVKKPGASVKVSCKASGYTFPNFGISWVRQAPGQGLEWMGWIAPYNVATNYAPKLQGRVTMTTDTSTSTAYMELRSLRSDDTAVYYCARWGAGYMGYYYYGMDVWGQGTTVTVSS
VH 2: QVQLVQSGVEVKKPGASVKVSCKASGYTFTDYGISWVRQAPGQGLEWMGWISAHNGNTNYAQKLQGRVTMTTDTSTNTAYMELRSLRSDDTAVYYCARRNWKYFDYWGQGTLVTVSS
VL: not shown
notes: as for B1
Regarding B4, the “Antibody bound (% of highest)” value in assay [1] stood at 7%; in assay [3] it was 17%; in [4] it was 100%; in assay [5], 22%; in assay [6] it was 37%; in assay [7], 1%. The “Antibody bound (% of highest)” value in assay [10] was found to be 7%; in assay [11], 8%; in assay [12], 28%; in assay [13] it was 8%. The “100 nM hAPLP2-MMH Bound (RU)” value in assay [2] is 24 RU. Moreover, in [2], the Kd was 976 nM. Further, the t½ in assay [2] amounted to 0.04 min.
